Experimental data reported in paper PMC8581553 (Cell reports, 2021).

B1: HA-SNAP-GluK3 (receptor, rat, UniProt P42264 32-919, looked up)
chain: MPHVIRIGGIFEYADGPNAQVMNAEEHAFRFSANIINRNRTLLPNTTLTYDIQRIHFHDSFEATKKACDQLALGVVAIFGPSQGSCTNAVQSICNALEVPHIQLRWKHHPLDNKDTFYVNLYPDYASLSHAILDLVQSLKWRSATVVYDDSTGLIRLQELIMAPSRYNIRLKIRQLPIDSDDSRPLLKEMKRGREFRIIFDCSHTMAAQILKQAMAMGMMTEYYHFIFTTLDLYALDLEPYRYSGVNLTGFRILNVDNAHVSAIVEKWSMERLQAAPRAESGLLDGVMMTDAALLYDAVHIVSVCYQRASQMTVNSLQCHRHKPWRFGGRFMNFIKEAQWEGLTGRIVFNKTSGLRTDFDLDIISLKEDGLEKVGVWSPADGLNITEVAKGRGPNVTDSLTNRSLIVTTLLEEPFVMFRKSDRTLYGNDRFEGYCIDLLKELAHILGFSYEIRLVEDGKYGAQDDKGQWNGMVKELIDHKADLAVAPLTITHVREKAIDFSKPFMTLGVSILYRKPNGTNPSVFSFLNPLSPDIWMYVLLAYLGVSCVLFVIARFSPYEWYDAHPCNPGSEVVENNFTLLNSFWFGMGSLMQQGSELMPKALSTRIIGGIWWFFTLIIISSYTANLAAFLTVERMESPIDSADDLAKQTKIEYGAVKDGATMTFFKKSKISTFEKMWAFMSSKPSALVKNNEEGIQRTLTADYALLMESTTIEYITQRNCNLTQIGGLIDSKGYGIGTPMGSPYRDKITIAILQLQEEDKLHIMKEKWWRGSGCPEEENKEASALGIQKIGGIFIVLAAGLVLSVLVAVGEFIYKLRKTAEREQRSFCSTVADEIRFSLTCQRRLKHKPQPPMMVKTDAVINMHTFNDRRLPGKDSMSCSTSLAPVFP
modifications: SNAP tag labelled with SBG-OG (Oregon Green)
B2: Halo-GluK5 (receptor, rat, UniProt Q63273 15-979, looked up)
chain: NPSCQVLSSLRMAAILDDQTVCGRGERLALALAREQINGIIEVPAKARVEVDIFELQRDSQYETTDTMCQILPKGVVSVLGPSSSPASASTVSHICGEKEIPHIKVGPEETPRLQYLRFASVSLYPSNEDVSLAVSRILKSFNYPSASLICAKAECLLRLEELVRGFLISKETLSVRMLDDSRDPTPLLKEIRDDKVSTIIIDANASISHLVLRKASELGMTSAFYKYILTTMDFPILHLDGIVEDSSNILGFSMFNTSHPFYPEFVRSLNMSWRENCEASTYPGPALSAALMFDAVHVVVSAVRELNRSQEIGVKPLACTSANIWPHGTSLMNYLRMVEYDGLTGRVEFNSKGQRTNYTLRILEKSRQGHREIGVWYSNRTLAMNATTLDINLSQTLANKTLVVTTILENPYVMRRPNFQALSGNERFEGFCVDMLRELAELLRFRYRLRLVEDGLYGAPEPNGSWTGMVGELINRKADLAVAAFTITAEREKVIDFSKPFMTLGISILYRVHMGRKPGYFSFLDPFSPAVWLFMLLAYLAVSCVLFLAARLSPYEWYNPHPCLRARPHILENQYTLGNSLWFPVGGFMQQGSEIMPRALSTRCVSGVWWAFTLIIISSYTANLAAFLTVQRMEVPVESADDLADQTNIEYGTIHAGSTMTFFQNSRYQTYQRMWNYMQSKQPSVFVKSTEEGIARVLNSRYAFLLESTMNEYHRRLNCNLTQIGGLLDTKGYGIGMPLGSPFRDEITLAILQLQENNRLEILKRKWWEGGRCPKEEDHRAKGLGMENIGGIFVVLICGLIIAVFVAVMEFIWSTRRSAESEEVSVCQEMLQELRHAVSCRKTSRSRRRRRPGGPSRALLSLRAVREMRLSNGKLYSAGAGGDAGAHGGPQRLLDDPGPPGGPRPQAPTPCTHVRVCQECRRIQALRASGAGAPPRGLGTPAEATSPPRPRPGPTGPRELTEHE
modifications: Halo tag labelled with CA-Sulfo549 (two-colour) or CA-Sulfo646 (three-colour)
B3: HA-SNAP-GluK2 (receptor, rat, UniProt P42260 32-908, looked up)
chain: TTHVLRFGGIFEYVESGPMGAEELAFRFAVNTINRNRTLLPNTTLTYDTQKINLYDSFEASKKACDQLSLGVAAIFGPSHSSSANAVQSICNALGVPHIQTRWKHQVSDNKDSFYVSLYPDFSSLSRAILDLVQFFKWKTVTVVYDDSTGLIRLQELIKAPSRYNLRLKIRQLPADTKDAKPLLKEMKRGKEFHVIFDCSHEMAAGILKQALAMGMMTEYYHYIFTTLDLFALDVEPYRYSGVNMTGFRILNTENTQVSSIIEKWSMERLQAPPKPDSGLLDGFMTTDAALMYDAVHVVSVAVQQFPQMTVSSLQCNRHKPWRFGTRFMSLIKEAHWEGLTGRITFNKTNGLRTDFDLDVISLKEEGLEKIGTWDPASGLNMTESQKGKPANITDSLSNRSLIVTTILEEPYVLFKKSDKPLYGNDRFEGYCIDLLRELSTILGFTYEIRLVEDGKYGAQDDVNGQWNGMVRELIDHKADLAVAPLAITYVREKVIDFSKPFMTLGISILYRKPNGTNPGVFSFLNPLSPDIWMYILLAYLGVSCVLFVIARFSPYEWYNPHPCNPDSDVVENNFTLLNSFWFGVGALMQQGSELMPKALSTRIVGGIWWFFTLIIISSYTANLAAFLTVERMESPIDSADDLAKQTKIEYGAVEDGATMTFFKKSKISTYDKMWAFMSSRRQSVLVKSNEEGIQRVLTSDYAFLMESTTIEFVTQRNCNLTQIGGLIDSKGYGVGTPMGSPYRDKITIAILQLQEEGKLHMMKEKWWRGNGCPEEESKEASALGVQNIGGIFIVLAAGLVLSVFVAVGEFLYKSKKNAQLEKRSFCSAMVEELRMSLKCQRRLKHKPQAPVIVKTEEVINMHTFNDRRLPGKETMA
modifications: SNAP tag labelled with SBG-OG (Oregon Green); for smFRET with BG-LD555 and BG-LD655
B4: HA-SNAP-GluK1 (receptor, rat, UniProt P22756 31-949, looked up)
chain: QTSPQVLRIGGIFETVENEPVNVEELAFKFAVTSINRNRTLMPNTTLTYDIQRINLFDSFEASRRACDQLALGVAALFGPSHSSSVSAVQSICNALEVPHIQTRWKHPSVDSRDLFYINLYPDYAAISRAVLDLVLYYNWKTVTVVYEDSTGLIRLQELIKAPSRYNIKIKIRQLPPANKDAKPLLKEMKKSKEFYVIFDCSHETAAEILKQILFMGMMTEYYHYFFTTLDLFALDLELYRYSGVNMTGFRKLNIDNPHVSSIIEKWSMERLQAPPRPETGLLDGMMTTEAALMYDAVYMVAIASHRASQLTVSSLQCHRHKPCALGPRFMNLIKEARWDGLTGRITFNKTDGLRKDFDLDIISLKEEGTEKASGEVSKHLYKVWKKIGIWNSNSGLNMTDGNRDRSNNITDSLANRTLIVTTILEEPYVMYRKSDKPLYGNDRFEAYCLDLLKELSNILGFLYDVKLVPDGKYGAQNDKGEWNGMVKELIDHRADLAVAPLTITYVREKVIDFSKPFMTLGISILYRKPNGTNPGVFSFLNPLSPDIWMYVLLACLGVSCVLFVIARFTPYEWYNPHPCNPDSDVVENNFTLLNSFWFGVGALMQQGSELMPKALSTRIVGGIWWFFTLIIISSYTANLAAFLTVERMESPIDSADDLAKQTKIEYGAVRDGSTMTFFKKSKISTYEKMWAFMSSRQQSALVKNSDEGIQRVLTTDYALLMESTSIEYVTQRNCNLTQIGGLIDSKGYGVGTPIGSPYRDKITIAILQLQEEGKLHMMKEKWWRGNGCPEEDSKEASALGVENIGGIFIVLAAGLVLSVFVAIGEFLYKSRKNNDVEQKGKSSRLRFYFRNKVRFHGSKKESLGVEKCLSFNAIMEELGISLKNQKKLKKKSRTKGKSSFTSILTCHQRRTQRKETVA
modifications: SNAP tag labelled with SBG-OG (Oregon Green); for smFRET with BG-LD555 and/or BG-LD655

Assays:
[1] = biological target: the molecule itself; experiment: single-molecule pull-down
[2] = biological target: B1; experiment: single-molecule pull-down

| Binder | stoichiometry N [1] | stoichiometry N [2] |
| --- | --- | --- |
| B1 | 4 |  |
| B2 |  | ≤ 2 GluK5 subunits in a di-heteromer |
| B3 | 4 |  |
| B4 | 4 |  |
